Laboratory results published in paper PMC5100602, “RNA regulators responding to ribosomal protein S15 are frequent in sequence space”.

Tests used:
[1] = biological target: T1, Gk-S15 (ribosomal protein S15) (Geobacillus kaustophilus, UniProt Q5L0I3 1-89); assay: filter binding; Fmax 0.36; SELEX Binding Buffer A: 50 mM Tris/acetate pH 7.5, 20 mM Mg-acetate, 270 mM KCl, 5 mM DTT, 0.02% BSA, 25 C, 30 min; filter binding (nitrocellulose/nylon) as previously described; conditions: protein: recombinant; tags: expressed from pET-HT; label: 5'-32P
[2] = biological target: T1, Gk-S15 (ribosomal protein S15); assay: filter binding; Fmax 21%; SELEX Binding Buffer A: 50 mM Tris/acetate pH 7.5, 20 mM Mg-acetate, 270 mM KCl, 5 mM DTT, 0.02% BSA, 25 C, 30 min; filter binding (nitrocellulose/nylon) as previously described; conditions: protein: recombinant; tags: expressed from pET-HT; label: 5'-32P
[3] = biological target: T1, Gk-S15 (ribosomal protein S15); assay: filter binding; Fmax 0.56; text says abolished; SELEX Binding Buffer A: 50 mM Tris/acetate pH 7.5, 20 mM Mg-acetate, 270 mM KCl, 5 mM DTT, 0.02% BSA, 25 C, 30 min; filter binding (nitrocellulose/nylon) as previously described; conditions: protein: recombinant; tags: expressed from pET-HT; label: 5'-32P; H1 disrupted
[4] = biological target: T1, Gk-S15 (ribosomal protein S15); assay: filter binding; Fmax 70%; SELEX Binding Buffer A: 50 mM Tris/acetate pH 7.5, 20 mM Mg-acetate, 270 mM KCl, 5 mM DTT, 0.02% BSA, 25 C, 30 min; filter binding (nitrocellulose/nylon) as previously described; conditions: protein: recombinant; tags: expressed from pET-HT; label: 5'-32P; helices H1-H3
[5] = biological target: T2, Tt-S15 (ribosomal protein S15) (Thermus thermophilus, UniProt Q5SJ76 1-89); assay: filter binding; Fmax 78%; SELEX Binding Buffer A: 50 mM Tris/acetate pH 7.5, 20 mM Mg-acetate, 270 mM KCl, 5 mM DTT, 0.02% BSA, 25 C, 30 min; filter binding (nitrocellulose/nylon) as previously described; conditions: protein: recombinant; tags: expressed from pET-HT; label: 5'-32P; helices H1-H3
[6] = biological target: T1, Gk-S15 (ribosomal protein S15); assay: filter binding; Fmax 0.71; SELEX Binding Buffer A: 50 mM Tris/acetate pH 7.5, 20 mM Mg-acetate, 270 mM KCl, 5 mM DTT, 0.02% BSA, 25 C, 30 min; filter binding (nitrocellulose/nylon) as previously described; conditions: protein: recombinant; tags: expressed from pET-HT; label: 5'-32P; H2 disrupted
[7] = biological target: T1, Gk-S15 (ribosomal protein S15); assay: filter binding; Fmax 0.85; SELEX Binding Buffer A: 50 mM Tris/acetate pH 7.5, 20 mM Mg-acetate, 270 mM KCl, 5 mM DTT, 0.02% BSA, 25 C, 30 min; filter binding (nitrocellulose/nylon) as previously described; conditions: protein: recombinant; tags: expressed from pET-HT; label: 5'-32P; H1 restored
[8] = biological target: T1, Gk-S15 (ribosomal protein S15); assay: filter binding; Fmax 40%; SELEX Binding Buffer A: 50 mM Tris/acetate pH 7.5, 20 mM Mg-acetate, 270 mM KCl, 5 mM DTT, 0.02% BSA, 25 C, 30 min; filter binding (nitrocellulose/nylon) as previously described; conditions: protein: recombinant; tags: expressed from pET-HT; label: 5'-32P
[9] = biological target: T1, Gk-S15 (ribosomal protein S15); assay: filter binding; Fmax 55%; SELEX Binding Buffer A: 50 mM Tris/acetate pH 7.5, 20 mM Mg-acetate, 270 mM KCl, 5 mM DTT, 0.02% BSA, 25 C, 30 min; filter binding (nitrocellulose/nylon) as previously described; conditions: protein: recombinant; tags: expressed from pET-HT; label: 5'-32P
[10] = biological target: T1, Gk-S15 (ribosomal protein S15); assay: filter binding; Fmax 44%; poor 1:1 fit; SELEX Binding Buffer A: 50 mM Tris/acetate pH 7.5, 20 mM Mg-acetate, 270 mM KCl, 5 mM DTT, 0.02% BSA, 25 C, 30 min; filter binding (nitrocellulose/nylon) as previously described; conditions: protein: recombinant; tags: expressed from pET-HT; label: 5'-32P
[11] = biological target: T2, Tt-S15 (ribosomal protein S15); assay: filter binding; Fmax 25%; SELEX Binding Buffer A: 50 mM Tris/acetate pH 7.5, 20 mM Mg-acetate, 270 mM KCl, 5 mM DTT, 0.02% BSA, 25 C, 30 min; filter binding (nitrocellulose/nylon) as previously described; conditions: protein: recombinant; tags: expressed from pET-HT; label: 5'-32P
[12] = biological target: T1, Gk-S15 (ribosomal protein S15); assay: filter binding; Fmax 79%; SELEX Binding Buffer A: 50 mM Tris/acetate pH 7.5, 20 mM Mg-acetate, 270 mM KCl, 5 mM DTT, 0.02% BSA, 25 C, 30 min; filter binding (nitrocellulose/nylon) as previously described; conditions: protein: recombinant; tags: expressed from pET-HT; label: 5'-32P

T2 sequence (Q5SJ76 whole entry): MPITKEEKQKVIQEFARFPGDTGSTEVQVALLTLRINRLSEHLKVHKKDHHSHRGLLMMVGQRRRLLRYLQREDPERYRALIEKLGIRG

B1: 11-1-M4 (structured_RNA)
RNA: UGCGUAACGUACACUUCCUUCGCUUAUUCGGAGUAGAUCACGUGAUCAUUCUGUAUGCUUUGGAG
In the case of B1, the Kd [1] is reported as 7.7 ± 5.89 nM.

B2: 11-4 (structured_RNA)
RNA: UGCGUAACGUACACUGAACAAUCCCAGCGCUCUAUGGAAUCUGCAUCAUCUAUUCUUUGGAGUUUAAAUGUCUCUAAGUACUGAAGCAACAGCU
With B2 the Kd [2] was 8.5 ± 2 nM.

B3: 11-1-M2 (structured_RNA)
RNA: UUGGUAACGUACACUUCCUUCGCUUAUUCGGAGUAGAUCACGUGAUCAUUCUGUAUGCUUUGGAGUUUUAAAAUGUCUCUAAGUACUGAAGCAACAGCU
B3 was tested, and the Kd [3] was 56.5 ± 5.74 nM.

B4: 11-1 (structured_RNA)
RNA: UGCGUAACGUACACUUCCUUCGCUUAUUCGGAGUAGAUCACGUGAUCAUUCUGUAUGCUUUGGAGUUUUAAAAUGUCUCUAAGUACUGAAGCAACAGCU
B4 was tested, and the Kd [4] was 0.9 ± 0.02 nM and the Kd [5] was 94.9 ± 22.5 nM.

B5: 11-1-M8 (structured_RNA)
RNA: UGCGUAACGUACACUUCCUUCGCUUAUUCGGAGUAGAUCACGUGAUCAUUCUGUAUGCUUUGGUCUUUUAAAAUGUCUCUAAGUACUGAAGCAACAGCU
In the case of B5, the Kd [6] is reported as 84.5 ± 14.5 nM.

B6: 11-1-M3 (structured_RNA)
RNA: UUGGUAACCGACACUUCCUUCGCUUAUUCGGAGUAGAUCACGUGAUCAUUCUGUAUGCUUUGGAGUUUUAAAAUGUCUCUAAGUACUGAAGCAACAGCU
B6 was tested, and the Kd [7] was 20.9 ± 6.3 nM.

B7: 11-3 (structured_RNA)
RNA: UGCGUAACGUACACUCCGAUGUUACCCGCGCGAGGUCAUUGGUACUCAAUCUAUAUACUUUGGAGUUUUAAAUGUCUCUAAGUACUGAAGCAACAGCU
With B7 the Kd [8] was 20.7 ± 15.2 nM.

B8: 11-6 (structured_RNA)
RNA: UGCGUAACGUACACUGAAGACCGCGAACUACAAACGUAACUCGGUUCAUUCUAUAUACUUUAGAGUUUUAAAAUGUCUCUAAGUACUGAAGCAACAGCU
B8 showed a Kd [9] of 289 ± 121 nM.

B9: 11-5 (structured_RNA)
RNA: UGCGUAACGUACACUAAAGACGGAAGGCCAAAACCUAUGCUUACCCUUUACUUUGGAGUUUUAAAAUGUCUCUAAGUACUGAAGCAACAGCU
B9 gave a Kd [10] of 10 ± 1.4 nM.

B10: 11-2 (structured_RNA)
RNA: UGCGUAACGUACACUCCCUACUCGUGGAUUGGACUCUAUAAUAGAUCAUUCUAUAUACUGUGGAGCUUAAAAUGUCUCUAAGUACUGAAGCAACAGCU
In the case of B10, the Kd [11] is reported as 39 ± 6.27 nM and the Kd [12] is reported as 9.7 ± 1.6 nM.
